The target of test [1] is p60ΔCD-HA K19E (Homo sapiens (Human)) (UniProt P19438). Nature of the test: cell staining, normalized to HA staining, p60ΔCD set at 1.
In test [2] the target is p60ΔCD-HA W108T (Homo sapiens (Human)) (UniProt P19438). The description is as above.
Test [3] has as its target p60ΔCD-HA KY19/20AA (Homo sapiens (Human)) (UniProt P19438). The description is as above.
In test [4] the target is p60ΔCD-HA K32A (Homo sapiens (Human)) (UniProt P19438). The test is described as above.
For test [5], the target named is p60ΔCD-HA DT49/50AA (Homo sapiens (Human)) (UniProt P19438). The description is as above.
Test [6] concerns the target p60ΔCD-HA L112E (Homo sapiens (Human)) (UniProt P19438). The test is described as above.
Test [7] deals with p60ΔCD-HA Q24A (Homo sapiens (Human)) (UniProt P19438). The test is described as above.
Test [8] addresses p60ΔCD-HA R77A (Homo sapiens (Human)) (UniProt P19438). The description is as above.
Test [9] addresses p6055-211 (Homo sapiens (Human)) (UniProt P19438). Described as above.
The target of test [10] is p60ΔCD-HA (Homo sapiens (Human)) (UniProt P19438). The test is described as above.
The target of test [11] is p60ΔCD-HA N66F (Homo sapiens (Human)) (UniProt P19438). The test is described as above.
The target of test [12] is p60ΔCD-HA E57A (Homo sapiens (Human)) (UniProt P19438). The test is described as above.
Test [13] deals with p60ΔCD-HA T61A (Homo sapiens (Human)) (UniProt P19438). The description is as above.
Test [14] addresses p60ΔCD-HA K19E (Homo sapiens (Human)) (UniProt P19438). The experiment in a line: cell staining, % positive cells / % HA positive cells, p60ΔCD set at 1.
In test [15] the target is p60ΔCD-HA W108T (Homo sapiens (Human)) (UniProt P19438). The description is as above.
Test [16] has as its target p60ΔCD-HA KY19/20AA (Homo sapiens (Human)) (UniProt P19438). Described as above.
The target in test [17] is p60ΔCD-HA K32A (Homo sapiens (Human)) (UniProt P19438). Described as above.
For test [18], the target named is p60ΔCD-HA DT49/50AA (Homo sapiens (Human)) (UniProt P19438). The test is described as above.
Test [19] deals with p60ΔCD-HA L112E (Homo sapiens (Human)) (UniProt P19438). Described as above.
Test [20] concerns the target p60ΔCD-HA Q24A (Homo sapiens (Human)) (UniProt P19438). The description is as above.
The target in test [21] is p60ΔCD-HA R77A (Homo sapiens (Human)) (UniProt P19438). Described as above.
The target in test [22] is p6055-211 (Homo sapiens (Human)) (UniProt P19438). Described as above.
Test [23] concerns the target p60ΔCD-HA (Homo sapiens (Human)) (UniProt P19438). The test is described as above.
Test [24] concerns the target p60ΔCD-HA N66F (Homo sapiens (Human)) (UniProt P19438). The test is described as above.
In test [25] the target is p60ΔCD-HA E57A (Homo sapiens (Human)) (UniProt P19438). The test is described as above.
The target in test [26] is p60ΔCD-HA T61A (Homo sapiens (Human)) (UniProt P19438). The description is as above.

“p60-specific monoclonal antibody clone 4.12 (Zymed)”: the clone 4.12 staining normalized against HA staining (relative to p60ΔCD) in [1] came to 1.07; in test [2] it was 1.11; in test [3] it was 0.14; in test [4], 0.01; in test [5], 0.96; in test [6] it was 1.27. Further, the clone 4.12 staining normalized against HA staining (relative to p60ΔCD) was found to be 0.97 in test [7]; 0.99 in [8]; 0.02 in test [9]; 1 in test [10]; 0.04 in test [11]; 0.04 in [12]. The substance further came in with a clone 4.12 staining normalized against HA staining (relative to p60ΔCD) in test [13] of 1.28.
Take “p60-specific monoclonal antibody clone MAB225 (R&D Systems)”: the MAB225 staining normalized against HA staining (relative to p60ΔCD) turned out to be 1.05 in test [14]; 1.32 in test [15]; 0.59 in test [16]; 0.36 in test [17]; 1.16 in test [18]; 1.31 in [19]. The MAB225 staining normalized against HA staining (relative to p60ΔCD) in test [20] came to 1.06; in test [21], 1.06; in test [22], 0.87; in test [23] it was 1; in [24] it was 0.67; in test [25] it was 1.68. Also, the MAB225 staining normalized against HA staining (relative to p60ΔCD) in [26] is 1.42.

Source of the values: patent US20100041596A1.
